{"source": "paper PMC3062689", "about": "(Biochemistry, 2011)", "molecules": {"B1": {"name": "wild type mouse arrestin-1 (natural protein, UniProt P20443 1-403, looked up)", "chain": "MAACGKTNKSHVIFKKVSRDKSVTIYLGKRDYVDHVSQVEPVDGVVLVDPELVKGKKVYVTLTCAFRYGQEDIDVMGLTFRRDLYFSRVQVYPPVGAMSVLTQLQESLLKKLGDNTYPFLLTFPDYLPCSVMLQPAPQDVGKSCGVDFEVKAFASDITDPEEDKIPKKSSVRLLIRKVQHAPPEMGPQPSAEASWQFFMSDKPLNLSVSLSKEIYFHGEPIPVTVTVTNNTDKVVKKIKVSVEQIANVVLYSSDYYVKPVASEETQEKVQPNSTLTKTLVLVPLLANNRERRGIALDGKIKHEDTNLASSTIIKEGIDRTVMGILVSYHIKVKLTVSGFLGELTSSEVATEVPFRLMHPQPEDPAKESVQDENLVFEEFARQNLKDTGENTEGKKDEDAGQDE"}, "B2": {"name": "wild type human arrestin-1 (natural protein, UniProt P10523 1-405, looked up)", "chain": "MAASGKTSKSEPNHVIFKKISRDKSVTIYLGNRDYIDHVSQVQPVDGVVLVDPDLVKGKKVYVTLTCAFRYGQEDIDVIGLTFRRDLYFSRVQVYPPVGAASTPTKLQESLLKKLGSNTYPFLLTFPDYLPCSVMLQPAPQDSGKSCGVDFEVKAFATDSTDAEEDKIPKKSSVRLLIRKVQHAPLEMGPQPRAEAAWQFFMSDKPLHLAVSLNKEIYFHGEPIPVTVTVTNNTEKTVKKIKAFVEQVANVVLYSSDYYVKPVAMEEAQEKVPPNSTLTKTLTLLPLLANNRERRGIALDGKIKHEDTNLASSTIIKEGIDRTVLGILVSYQIKVKLTVSGFLGELTSSEVATEVPFRLMHPQPEDPAKESYQDANLVFEEFARHNLKDAGEAEEGKRDKNDVDE"}}, "test_in_all_cases": "SEC-MALS", "key": {"[1]": {"biological_target": "Mouse arrestin-1-(F86A,F198A) (mouse) (UniProt P20443)"}, "[2]": {"biological_target": "Mouse arrestin-1-(F86A,F198A, A349V) (mouse) (UniProt P20443)"}, "SEC-MALS [3]": {"biological_target": "the molecule itself"}, "SEC-MALS [4]": {"biological_target": "the molecule itself", "remark": "listed apart in the source"}, "SEC-MALS [5]": {"biological_target": "the molecule itself", "remark": "listed apart in the source"}, "SEC-MALS [6]": {"biological_target": "the molecule itself", "remark": "listed apart in the source"}}, "note": "Where two headings read alike, the source gives them in different places.", "data": [{"molecule": "Mouse arrestin-1-(F86A,F198A) (from UniProt P20443 1-403) (natural protein)", "values": [{"measurement": "Kd", "setting": "[1]", "value": 537, "unit": "µM"}, {"measurement": "log Kdim (association constant)", "setting": "[1]", "value": 3.27}, {"measurement": "stoichiometry N", "setting": "[1]", "value": 2}]}, {"molecule": "Mouse arrestin-1-(F86A,F198A, A349V) (from UniProt P20443 1-403) (natural protein)", "values": [{"measurement": "Kd", "setting": "[2]", "value": 724, "unit": "µM"}, {"measurement": "log Kdim (association constant)", "setting": "[2]", "value": 3.14}, {"measurement": "stoichiometry N", "setting": "[2]", "value": 2}]}, {"molecule": "B1", "values": [{"measurement": "stoichiometry N", "setting": "SEC-MALS [3]", "value": 2}, {"measurement": "stoichiometry N", "setting": "SEC-MALS [4]", "value": 4}, {"measurement": "Kd", "setting": "SEC-MALS [5]", "value": 57.5, "unit": "µM"}, {"measurement": "Kd", "setting": "SEC-MALS [6]", "value": 63.1, "unit": "µM"}]}, {"molecule": "B2", "values": [{"measurement": "Kd", "setting": "SEC-MALS [5]", "value": 2.95, "unit": "µM"}, {"measurement": "Kd", "setting": "SEC-MALS [6]", "value": 224, "unit": "µM"}]}]}
